According to the supplement of paper PMC10567573:

B1: ZBED2 (parent)
chain: RAGHHPNQYATCRLCGRQVSRGPG

Variants of: B1
Assay: protein stability index of a GFP-peptide fusion (GPS, HEK-293T) (PSI 1-6); higher = more stable
Conditions: c terminus: a fixed tail appended
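Note: lentivirally expressed fusions sorted by FACS into six bins by GFP to DsRed ratio, PSI derived from sequencing read proportions per bin multiplied by bin number.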

Variant	protein stability index
RAGHHPAQYATCRLCGRQVSRGPG	1.78
RAGHHPFQYATCRLCGRQVSRGPG	1.08
RAGHHPKQYATCRLCGRQVSRGPG	1.81
RAGHHPEQYATCRLCGRQVSRGPG	2.52
RAGHHPLQYATCRLCGRQVSRGPG	2.67
RAGHHPMQYATCRLCGRQVSRGPG	2.04
RAGHHPPQYATCRLCGRQVSRGPG	1.56
RAGHHPRQYATCRLCGRQVSRGPG	1.46
RAGHHPSQYATCRLCGRQVSRGPG	1.88
RAGHHPYQYATCRLCGRQVSRGPG	2.9
RAGHHPNQYATCRLCGRSVSRGPG	1.23
RAGHHPNQYATCRLCGRMVSRGPG	2.17
RAGHHPNQYATCRLCGRPVSRGPG	2.69
RAGHHPNQYATCRLCGRAVSRGPG	2.44
RAGHHPNQYATCRLCGRNVSRGPG	2.12
RAGHHPNQYATCRLCGRFVSRGPG	2.67
RAGHHPNQYATCRLCGREVSRGPG	1
RAGHHPNQYATCRLCGRIVSRGPG	2.23
RAGHHPNQYATCRLCGRGVSRGPG	2.68
RAGHHPNQYATCRLCGRHVSRGPG	2.59
RAGHHPNQYATCPLCGRQVSRGPG	3.18
RAGHHPNQYATCSLCGRQVSRGPG	2.79
RAGHHPNQYATCDLCGRQVSRGPG	1.96
RAGHHPNQYATCELCGRQVSRGPG	1.9

Variant	protein stability index
RAGHHPNQYATCTLCGRQVSRGPG	2.4
RAGHHPNQYATCMLCGRQVSRGPG	2.24
RAGHHPNQYATCVLCGRQVSRGPG	2.39
RAGHHPNQYATCILCGRQVSRGPG	2.09
RAGHHPNQYATCQLCGRQVSRGPG	1.04
RAGHHPNQYATCWLCGRQVSRGPG	1.98
RAGHHPNQYATCYLCGRQVSRGPG	2.42
RAGHHPNQYATCLLCGRQVSRGPG	1.58
RAGHHPNQYATCHLCGRQVSRGPG	1.59
RAGHHPNQYATCKLCGRQVSRGPG	2.1
RAGHHPNQYATCFLCGRQVSRGPG	1.36
RAGHHPNGYATCRLCGRQVSRGPG	1.86
RAGHHPNPYATCRLCGRQVSRGPG	2.03
RAGHHPNEYATCRLCGRQVSRGPG	3.47
RAGHHPNSYATCRLCGRQVSRGPG	1.05
RAGHHPNYYATCRLCGRQVSRGPG	1.13
RAGHHPNDYATCRLCGRQVSRGPG	3.31
RAGHHPNFYATCRLCGRQVSRGPG	2.11
RAGHHPNIYATCRLCGRQVSRGPG	1.57
RAGHHPNMYATCRLCGRQVSRGPG	1.23
RAGHHPNKYATCRLCGRQVSRGPG	2.78
RAGHHPNHYATCRLCGRQVSRGPG	1.9
RAGHHPNNYATCRLCGRQVSRGPG	1.68
RAGHHPNQYATCRWCGRQVSRGPG	2.12

Variant	protein stability index
RAGHHPNQYATCRKCGRQVSRGPG	2.66
RAGHHPNQYATCRHCGRQVSRGPG	1.75
RAGHHPNQYATCRICGRQVSRGPG	1.48
RAGHHPNQYATCRGCGRQVSRGPG	2.04
RAGHHPNQYATCRVCGRQVSRGPG	1.07
RAGHHPNQYATCRCCGRQVSRGPG	2.79
RAGHHPNQYATCRACGRQVSRGPG	1.78
RAGHHPNQYATCRRCGRQVSRGPG	2.39
RAGHHPNQYATCRSCGRQVSRGPG	1.57
RAGHHPNQYATCRPCGRQVSRGPG	1.82
RAGHHPNQYATCRTCGRQVSRGPG	1.49
RAGHHPNQYATCRNCGRQVSRGPG	1.25
RAGHHPNQYATCRQCGRQVSRGPG	1.15
RAGHHPNQYATARLCGRQVSRGPG	3.19
RAGHHPNQYATDRLCGRQVSRGPG	2.88
RAGHHPNQYATPRLCGRQVSRGPG	2.98
RAGHHPNQYATFRLCGRQVSRGPG	1.81
RAGHHPNQYATQRLCGRQVSRGPG	3.12
RAGHHPNQYATLRLCGRQVSRGPG	2.27
RAGHHPNQYATRRLCGRQVSRGPG	3.2
RAGHHPNQYATERLCGRQVSRGPG	3.66
RAGHHPNQYATMRLCGRQVSRGPG	2.28
RAGHHPNQYATIRLCGRQVSRGPG	2.64
RAGHHPNQYATKRLCGRQVSRGPG	2.4

Variant	protein stability index
RAGHHPNQYATHRLCGRQVSRGPG	2.49
RAGHHPNQYATTRLCGRQVSRGPG	3.19
RAGHHPNQYATGRLCGRQVSRGPG	3.16
RAGHHPNQYATSRLCGRQVSRGPG	3.52
RAGHHPNQYATVRLCGRQVSRGPG	2.49
RAGHHPNQYLTCRLCGRQVSRGPG	2.12
RAGHHPNQYMTCRLCGRQVSRGPG	1.8
RAGHHPNQYFTCRLCGRQVSRGPG	2.67
RAGHHPNQYGTCRLCGRQVSRGPG	2.12
RAGHHPNQYVTCRLCGRQVSRGPG	1.43
RAGHHPNQYKTCRLCGRQVSRGPG	1.67
RAGHHPNQYHTCRLCGRQVSRGPG	2.02
RAGHHPNQYSTCRLCGRQVSRGPG	2.2
RAGHHPNQYCTCRLCGRQVSRGPG	2.67
RAGHHPNQYNTCRLCGRQVSRGPG	1.64
RAGHHPNQYYTCRLCGRQVSRGPG	1.34
RAGHHPNQYTTCRLCGRQVSRGPG	2.78
RAGHHPNQYITCRLCGRQVSRGPG	1.43
RAGHHPNQYETCRLCGRQVSRGPG	1.6
RAGHHPNQYRTCRLCGRQVSRGPG	1.43
RAGHHPNQYDTCRLCGRQVSRGPG	1.79
RAGHHPNQYWTCRLCGRQVSRGPG	1.76
